# Reference: patent US11572572B2, “A138T mutation-containing plant EPSPS mutant, and encoding gene and application thereof” (GEVOTO LLC, priority 2017, dated 2023)
# Experiments:
# [1] = system: double-knockout Escherichia coli strain (EDCE); assay: Growth of double-knockout E. coli (EDCE) transformed with Oryza sativa EPSPS genes in glyphosate media (Example 5); assay type: cell-based; details: Example 5, FIG. 1
# Description: An Escherichia coli strain transformed with the Oryza sativa EPSPS mutant I-encoding gene according to Example 1 was used as Experimental Group 1 (having only the A155(138)T mutation).
# An Escherichia coli strain transformed with the Oryza sativa EPSPS mutant II-encoding gene according to Example 2 was used as Experimental Group 3 (having the G111(96)A mutation and A155(138)T mutation).
# An Escherichia coli strain transformed with a wild-type Oryza sativa EPSPS-encoding gene (SEQ ID NO: 14, encoding wild-type Oryza sativa EPSPS set forth in SEQ ID NO: 5) was used as a control group.
# The glyphosate resistance of the Oryza sativa EPSPS mutant I-encoding gene and the encoded Oryza sativa EPSPS mutant I in Escherichia coli, and the glyphosate resistance of the Oryza sativa EPSPS mutant II-encoding gene and the encoded Oryza sativa EPSPS mutant II in Escherichia coli were verified by detecting the growth statuses of the transformed Escherichia coli in media containing different concentrations of glyphosate (0 mM, 1 mM, 2 mM, 20 mM) (media obtained by using M9 as a basal medium and then adding certain concentrations of antibiotics Spec (Spectinomycin), Gen (Gentamycin), and Amp (Ampicillin) and different concentrations of glyphosate).
# Here, the Escherichia coli strain used was an double-knockout Escherichia coli strain (Escherichia coli strain DH5a from which an EPSPS gene and a C-P Lyase gene were knocked out, named EDCE, which may be prepared by a method with reference to Chinese Patent Application No. 2016103256926).
# The detection was carried out by a method well known in the art, which was briefly described below. Gene encoding Oryza sativa EPSPS mutants was synthesized by a chemical synthesis method, wherein enzymatic digestion sites (Pacl and Sbfl) were introduced at both ends of the gene. The gene were enzymatically cleaved and then ligated in the presence of ligase to an expression vector (e.g., pADV5 vector having a structure as shown in FIG. 4) subjected to the same enzymatic digestion treatment, and then were transformed into the double-knockout Escherichia coli strain. After verification, positive clones were picked out and inoculated and grown in media containing glyphosate. The growth statuses were observed.
# [2] = system: transgenic rice seedlings; assay: Glyphosate resistance of EPSPS mutants in transgenic rice sprayed with glyphosate (Example 8); assay type: in vivo, rice (Nipponbare)
# Description: The glyphosate resistance of the EPSPS mutants of the above examples in transgenic rice was detected by the following method.
# Plasmids of monoclonal resistant strain comprising pADV5-EPSPS of Examples 1-4 (containing the EPSPS mutant genes) were extracted in accordance with a conventional method. They were subjected to double enzymatic digestion with Pacl and BstEII to recover small fragments, and then the small fragments were ligated, using T4 DNA ligase, to a pGVP1 vector subjected to double enzymatic digestion in the same manner, to obtain a pGVP1-EPSPS vector having a structure as shown in FIG. 8.
# The pGVP1-EPSPS vector was transformed into EHA105 (Agrobacterium tumefaciens) competent cells, and single clones were picked out for colony PCR detection to obtain positive strains. Then, the positive strains were inoculated into and propagated in 1 mL of a YEP medium containing 50 μg·mL^−1 kanamycin and 50 μg·mL^−1 rifampicin, and stored at −80° C. or used in subsequent experiments.
# 400 ul of a strain containing the target gene vector stored at −80° C. was added to a culture dish with a solid medium containing YEP+50 μg/mL rifampicin+50 μg/mL kanamycin and cultured in the dark at 28° C. for 24 hours, and then the bacterium was added to an infection medium and adjusted to OD=0.2 as an infection solution.
# Disinfection and Pre-culture: seeds of mature rice (Nipponbare) were manually dehulled. Full seeds with no bacterial plaques were selected and disinfected in accordance with the following steps: the seeds were placed in a 50 ml sterile centrifuge tube and disinfected with the added 70% ethanol in water for 30 seconds, ethanol solution was poured out, and the seeds were washed once with sterile water; 10 to 20 ml of 2.6% sodium hypochlorite solution was added to soak and disinfect the seeds for 20 minutes. The sodium hypochlorite solution was poured out, and the seeds were soaked and washed with sterile water for 6 or 7 times, for 3 minutes each time.
# Induction and Subculture: the seeds were placed on and blotted with sterile filter paper, and the mature embryos were placed in an induction medium, with 12 embryos per dish. After the operation was completed, the culture dishes were sealed with parafilm and underwent culturing in the dark at 30° C. for 21 to 28 days. Callus tissue was transferred to a fresh medium and continued to be cultured for about 7 to 14 days. Spherical callus tissue with a dimension of 1 to 2 mm was taken as an infection receptor.
# The callus tissue was placed into a centrifuge tube or culture cup, infected in the prepared Agrobacterium suspension added thereto for 10 minutes, and shaken several times during the period; the bacterial solution was poured out, the callus tissue was taken out and placed on sterile filter paper for absorbing the bacterial solution from its surface (for about 30 minutes); the callus tissue was placed on sterile filter paper in culture dishes and cultured in the dark at 25° C. for 2 or 3 days.
# Recovery Culture: the co-cultured callus tissue was inoculated on a recovery medium and cultured in the dark at 30° C. for 5 to 7 days.
# Primary Screening: the callus was transferred to screening medium 1 (51) and cultured in the dark at 30° C. for 14 days.
# Secondary Screening: the callus was then transferred to screening medium 2 (S2) and cultured in the dark at 30° C. for 14 days.
# Primary Differentiation: the screened resistant callus tissue was transferred to a differentiation medium and cultured for about 21 days at 30° C. under exposure to light for 19 hours.
# Secondary Differentiation: new young shoots were selected and moved to a fresh differentiation medium and continued to be cultured for about 21 days.
# When the new seedlings grew to about 2 cm, they were moved to a rooting medium and cultured for 3 to 4 weeks at 30° C. under exposure to light (for 16/8 h). […]
# [3] = medium containing 1 mM glyphosate
# [4] = medium containing 2 mM glyphosate
# [5] = medium containing 20 mM glyphosate
# [6] = 1X dose glyphosate (1,060 g/ha), day 10 after spraying
# [7] = 2X dose glyphosate (2,120 g/ha) on survivors of 1X, after another 10 days
# [8] = 5X dose glyphosate (5,300 g/ha) on survivors of 2X, after additional 10 days
# [9] = 20X dose glyphosate (21,200 g/ha) on survivors of 5X, after further 10 days
molecule,measurement,setting,value
"R1: Oryza sativa EPSPS mutant I with A155(138)T mutation (SEQ ID NO: 6), encoding gene SEQ ID NO: 15 (protein, Oryza sativa EPSPS mutant with mutation A155(138)T) MASNAAAAAAKAEEIVLQPIREISGAVQLPGSKSLSNRILLLSALSEGTTVVDNLLNSEDVHYMLEALKALGLSVEADKVAKRAVVVGCGGKFPVEKDAKEEVQLFLGNAGTAMRPLTAAVTAAGGNATYVLDGVPRMRERPIGDLVVGLKQLGTDVDCFLGTECPPVRVKGIGGLPGGKVKLSGSISSQYLSALLMAAPLALGDVEIEIIDKLISIPYVEMTLRLMERFGVKAEHSDSWDRFYIKGGQKYKSPGNAYVEGDASSASYFLAGAAITGGTVTVQGCGTTSLQGDVKFAEVLEMMGAKVTWTDTSVTVTGPPREPYGKKHLKAVDVNMNKMPDVAMTLAVVALFADGPTAIRDVASWRVKETERMVAIRTELTKLGASVEEGPDYCIITPPEKLNITAIDTYDDHRMAMAFSLAACADVPVTIRDPGCTRKTFPNYFDVLSTFVRN",growth status of transformed Escherichia coli,[1]; [3],showed bacterial plaques
same,growth status of transformed Escherichia coli,[1]; [4],could not grow
same,growth status of transformed Escherichia coli,[1]; [5],could not grow
same,% ++&+++ (percentage of moderately and highly glyphosate resistant plants in total plants observed),[2]; [6],58.1%
same,plant number with resistance + (low glyphosate resistant),[2]; [6],8
same,plant number with resistance ++ (moderately glyphosate resistant),[2]; [6],7
same,plant number with resistance +++ (highly glyphosate resistant),[2]; [6],11
same,% ++&+++ (percentage of moderately and highly glyphosate resistant plants in total plants observed),[2]; [7],0.0%
same,plant number with resistance + (low glyphosate resistant),[2]; [7],5
same,plant number with resistance ++ (moderately glyphosate resistant),[2]; [7],0
same,plant number with resistance +++ (highly glyphosate resistant),[2]; [7],0
same,"plant number with resistance − (non-glyphosate resistant, withered or dead)",[2]; [7],26
same,survival of transformed rice seedlings (in words),[2]; 2× and 5× glyphosate doses,all of them survived
same,% ++&+++ (percentage of moderately and highly glyphosate resistant plants in total plants observed),[2]; [8],0.0%
same,plant number with resistance + (low glyphosate resistant),[2]; [8],1
same,plant number with resistance ++ (moderately glyphosate resistant),[2]; [8],0
same,plant number with resistance +++ (highly glyphosate resistant),[2]; [8],0
same,"plant number with resistance − (non-glyphosate resistant, withered or dead)",[2]; [8],30
same,% ++&+++ (percentage of moderately and highly glyphosate resistant plants in total plants observed),[2]; [9],0.0%
same,plant number with resistance + (low glyphosate resistant),[2]; [9],0
same,plant number with resistance ++ (moderately glyphosate resistant),[2]; [9],0
same,plant number with resistance +++ (highly glyphosate resistant),[2]; [9],0
same,"plant number with resistance − (non-glyphosate resistant, withered or dead)",[2]; [9],31
same,glyphosate resistance of transformed rice seedlings (in words),[2]; after spraying with 1× glyphosate,significantly better glyphosate resistance than that of R0
"R2: Oryza sativa EPSPS mutant having only the G111(96)A mutation (SEQ ID NO: 2), encoding gene SEQ ID NO: 16 (protein, Oryza sativa EPSPS mutant with only G111(96)A mutation) MASNAAAAAAKAEEIVLQPIREISGAVQLPGSKSLSNRILLLSALSEGTTVVDNLLNSEDVHYMLEALKALGLSVEADKVAKRAVVVGCGGKFPVEKDAKEEVQLFLGNAATAMRPLTAAVTAAGGNATYVLDGVPRMRERPIGDLVVGLKQLGADVDCFLGTECPPVRVKGIGGLPGGKVKLSGSISSQYLSALLMAAPLALGDVEIEIIDKLISIPYVEMTLRLMERFGVKAEHSDSWDRFYIKGGQKYKSPGNAYVEGDASSASYFLAGAAITGGTVTVQGCGTTSLQGDVKFAEVLEMMGAKVTWTDTSVTVTGPPREPYGKKHLKAVDVNMNKMPDVAMTLAVVALFADGPTAIRDVASWRVKETERMVAIRTELTKLGASVEEGPDYCIITPPEKLNITAIDTYDDHRMAMAFSLAACADVPVTIRDPGCTRKTFPNYFDVLSTFVRN",growth status of transformed Escherichia coli,[1]; [3],showed bacterial plaques
same,growth status of transformed Escherichia coli,[1]; [4],could not grow
same,growth status of transformed Escherichia coli,[1]; [5],could not grow
same,% ++&+++ (percentage of moderately and highly glyphosate resistant plants in total plants observed),[2]; [6],69.2%
same,plant number with resistance + (low glyphosate resistant),[2]; [6],2
same,plant number with resistance ++ (moderately glyphosate resistant),[2]; [6],1
same,plant number with resistance +++ (highly glyphosate resistant),[2]; [6],8
same,% ++&+++ (percentage of moderately and highly glyphosate resistant plants in total plants observed),[2]; [7],61.5%
same,plant number with resistance + (low glyphosate resistant),[2]; [7],2
same,plant number with resistance ++ (moderately glyphosate resistant),[2]; [7],2
same,plant number with resistance +++ (highly glyphosate resistant),[2]; [7],6
same,"plant number with resistance − (non-glyphosate resistant, withered or dead)",[2]; [7],3
same,% ++&+++ (percentage of moderately and highly glyphosate resistant plants in total plants observed),[2]; [8],46.2%
same,plant number with resistance + (low glyphosate resistant),[2]; [8],2
same,plant number with resistance ++ (moderately glyphosate resistant),[2]; [8],3
same,plant number with resistance +++ (highly glyphosate resistant),[2]; [8],3
same,"plant number with resistance − (non-glyphosate resistant, withered or dead)",[2]; [8],5
same,% ++&+++ (percentage of moderately and highly glyphosate resistant plants in total plants observed),[2]; [9],15.4%
same,plant number with resistance + (low glyphosate resistant),[2]; [9],4
same,plant number with resistance ++ (moderately glyphosate resistant),[2]; [9],1
same,plant number with resistance +++ (highly glyphosate resistant),[2]; [9],1
same,"plant number with resistance − (non-glyphosate resistant, withered or dead)",[2]; [9],7
